From patent US20160251435A1 (INHIBRX, published 2016) come the findings set out here.

In general, EC50 (read off the curve) refers to the concentration giving half of the maximal effect.

In assay [1] the target is T1, human CD47, endogenous cell surface form (Raji, CCRF-CEM cells) (human, UniProt Q08722 19-323).
T1 construct: the cells carry endogenous CD47; also called cell surface CD47
Briefly: flow cytometry on CCRF-CEM cells, FITC anti-mouse IgG, MFI-FL1. (In general: Flow cytometry measures light scatter and fluorescence of single cells or particles in a stream.)
Source text: Bound CD47 antibodies were detected using a FITC conjugated anti-mouse IgG secondary antibody (Jackson ImmunoResearch).

In assay [2] the target is T1, human CD47, endogenous cell surface …. Nature of the assay: apparent KD, flow cytometry on Raji cells, non-linear fit of median fluorescence.
Assay [3] shares this target. Briefly: flow cytometry blocking: SIRPa-Fc binding to CCRF-CEM cells with rising antibody.
The target in assay [4] is T2, recombinant His-tagged-CD47-IgV (human, UniProt Q08722 19-134).
T2 construct: not shown: His tag
Briefly: blocking ELISA: SIRPa-Fc binding to immobilised His-CD47-IgV with rising antibody.

Assay [5] addresses T1, human CD47, endogenous cell surface …. Nature of the assay: flow cytometry on Raji cells (CD20-gated), signal normalised to the maximum of the antibody on that cell population.
Procedure: (§1) Cynomolgus peripheral blood mononuclear cells (PBMCs) were isolated from cynomolgus whole blood by ficoll-paque gradient centrifugation. […] Cells were analyzed by flow cytometry, first gated on live cells by FSC and SSC, then on cells positive for FL4 (CD20 positive), and lastly the median FL1 (CD47 positive) was measured. The data were normalized by dividing the signal at each concentration by the maximum signal for each antibody on each cell population.
Assay [6] deals with T3, cynomolgus monkey CD47 on cynomolgus B-cells (cynomolgus monkey, UniProt A0A5F8AK49 19-323 (rhesus entry)).
T3 construct: whole, on cells; also called cyno CD47
Nature of the assay: flow cytometry on cynomolgus B-cells (CD20-gated PBMC), signal normalised to the maximum of the antibody on that cell population.
Procedure: as §1

Assay [7] has as its target human CD47, endogenous cell surface form (Raji, CCRF-CEM cells) (human) (UniProt Q08722). Nature of the assay: cell-based or functional assay.
The target is the same in assay [8]. Nature of the assay: flow cytometry on CCRF-CEM cells, FITC anti-mouse IgG, MFI-FL1.
Assay [9] has the same target. Nature of the assay: apparent KD, flow cytometry on Raji cells, non-linear fit of median fluorescence.
The target is the same in assay [10]. Nature of the assay: flow cytometry blocking: SIRPa-Fc binding to CCRF-CEM cells with rising antibody.

B1: murine CD47 antibody 2A1 (antibody, mouse IgG1, V domains shown)
VH: EVQLQQSGAELVRSGASVKLSCTASGFNIKDYYLHWVKQRPEQGLEWIGWIDPDNGDTEFAPKFQGKATMTADTSSNTAYLQLSSLTSEDTAVYYCNAAYGSSSYPMDYWGQGTSVTV
VL: DIKMTQSPSSLYASLGERVTITCKASQDIHRYLSWFQQKPGKSPKILIYRANRLVDGVPSRFSGSGSGQDYSLTISSLEYEDMGIYYCLQYDEFPYTFGGGTKLEMK
notes: Hybridoma-derived mouse IgG1; also called 2A1-mIgG1; 2A1mIgG1
As to B1, the concentration for a half-maximal effect (EC50 (read off the curve)) in [1], in [5] and in assay [6] was roughly 400 pM in each case. In assay [2], the Kd stood at 93.6 pM. For the same molecule, the results for the “IC50 (read off the curve)” value in assay [3] and in assay [4] were roughly 700 pM and roughly 5000 pM, respectively.

B2: B6H12 CD47 antibody (antibody, from another filing, V domains shown)
VH: EVKLVESGGDLVKPGGSLKLSCAASGFTFSGYGMSWVRQTPDKRLEWVATITSGGTYTYYPDSVKGRFTISRDNAKNTLYLQIDSLKSEDTAIYFCARSLAGNAMDYWGQGTSVTVSS
VL: DIVMTQSPATLSVTPGDRVSLSCRASQTISDYLHWYQQKSHESPRLLIKFASQSISGIPSRFSGSGSGSDFTLSINSVEPEDVGVYYCQNGHGFPRTFGGGTKLEIK
In assay [7], B2 came in with a phagocytosis of CFSE-labeled CCRF-CEM tumor cells by human monocyte derived macrophages greater than 66.7 pM. In assay [8], this molecule registered an EC50 (read off the curve) of 3000 pM. For the same molecule, in [9], the Kd came out at 3790 pM. The molecule also returned an IC50 (read off the curve) in assay [10] of 9000 pM.
